Series [1] addresses T1, TK2268p (TK2268 protein) (Thermococcus kodakarensis, UniProt Q5JHU0).
T1 construct: full-length, C-terminal His6-tag, overexpressed homologously in T. kodakarensis, His GraviTrap and gel filtration
Nature of the series: initial velocity, HPLC after o-phthalaldehyde derivatization; substrate inhibition fit. In kind it is biochemical. To be noted: substrate inhibition constant, second site (second substrate binding to enzyme-substrate complex), 20 µM PLP, 50 mM HEPES pH 7.5, 80°C. The text has this:
(§1) initial velocity, HPLC after o-phthalaldehyde derivatization; substrate inhibition fit on TK2268p (TK2268 protein)

Substrate in series [2]: N[C@@H](CC(=O)O)C(=O)O
Nature of the series: purified protein. As to conditions: amino donor, 10 mM 2-oxoglutarate, 20 µM PLP, 50 mM HEPES pH 7.5, 80°C.

Substrate in series [3]: O=C(O)CC(=O)C(=O)O
Put plainly: purified protein. In kind it is biochemical, Thermococcus kodakarensis. As to conditions: amino acceptor, 4 mM glutamate, 20 µM PLP, 50 mM HEPES pH 7.5, 80°C, substrate inhibition model, Ks1 described as dissociation constant of first substrate.

Substrate in series [4]: N[C@@H](CCC(=O)O)C(=O)O
Nature of the series: initial velocity, HPLC after o-phthalaldehyde derivatization. The class given is biochemical, Thermococcus kodakarensis. As to conditions: amino donor, 10 mM oxaloacetate, 20 µM PLP, 50 mM HEPES pH 7.5, 80°C. The text has this: initial velocity, HPLC after o-phthalaldehyde derivatization on TK2268p (TK2268 protein)

Substrate in series [5]: O=C(O)CCC(=O)C(=O)O
Nature of the series: initial velocity, HPLC after o-phthalaldehyde derivatization; substrate inhibition fit. In kind it is biochemical, Thermococcus kodakarensis. As to conditions: amino acceptor, 10 mM Asp, 20 µM PLP, 50 mM HEPES pH 7.5, 80°C, substrate inhibition model, Ks1 described as dissociation constant of first substrate.
Excerpt: as §1

With `O=C(O)CC(=O)C(=O)O` [OAA, oxaloacetate], the “Km” value in series [1] (4 mM glutamate) is on record as 13.2 ± 1.2 mM.
`O=C(O)CCC(=O)C(=O)O` [2-OG, 2-oxoglutarate]: the Michaelis-Menten constant (Km) in series [1] (10 mM Asp) is reported as 5.9 ± 1.6 mM.

B1: TK2268p (TK2268 protein) (Thermococcus kodakarensis KOD1) (protein)
chain: MRYKKRKYFMAGRINILQRSKIRELFEKASKMENVISLGIGEPDFDTPEVIKEAAKRAIDEGYTHYTPNAGIPEFREAIAEYYKEFYNVDVDMNNIIVTAGAYEATYLAFESILEQGDDVIIPDPAFVCYVEDAKIAEAGIIRIPLREENKFRIDPDELLEAITKRTRMIVMNYPNNPTGAIMKKDVAKAIADIAQDYNIYILSDEPYEHFLYEGARHHPMIKYAPDNTILANSFSKTFAMTGWRLGFAIAPEQVIRDMIKLHAYVIGNVTSFIQIAGITALRDKRSWEAVERMRQVYDERRKLVLKYLNDMPHITPFRPKGAFYIWAKIDPELDMTSEDFAEWLLENAGVVVIPGTAFGRQGEGWIRISYATEKEKLIEAMERMKEALSKL
notes: full-length, C-terminal His6-tag, overexpressed homologously in T. kodakarensis, His GraviTrap and gel filtration
Turning to B1, the Km in series [2] is 10.3 ± 0.5 mM; in series [3], 1.3 ± 0.1 mM; in series [4], 3.4 ± 0.3 mM; in series [5], 38.8 ± 9.6 mM. Besides, the Vmax in series [2] stood at 232 µmol/min/mg; in series [3], 360 µmol/min/mg; in series [4], 443 µmol/min/mg; in series [5], 1040 ± 230 µmol/min/mg. Besides, the turnover number (kcat) is 175 s⁻¹ in series [2], 270 ± 16 s⁻¹ in series [3], 333 ± 12 s⁻¹ in series [4] and 781 ± 244 s⁻¹ in series [5]. Moreover, the kcat/Km in series [2] was 17000 M⁻¹ s⁻¹; in series [3], 208000 M⁻¹ s⁻¹; in series [4], 97800 M⁻¹ s⁻¹; in series [5] it was 20100 M⁻¹ s⁻¹.

What is called Km is the substrate concentration at which the rate is half of its maximum. Usually Vmax stands for the top rate of the reaction or transport when substrate is in excess. In general, kcat refers to the maximal rate divided by the concentration of active sites. By kcat/Km is commonly meant the turnover number divided by the Michaelis constant.

Source of the values: publication PMC11921379, “TK2268 encodes the major aminotransferase involved in the conversion from oxaloacetic acid to aspartic acid in Thermococcus kodakarensis” (Applied and Environmental Microbiology, 2025).
